Source: patent publication US20190256586A1 (Johns Hopkins, published 2019)

Biological target: T1, recombinant PSSP17 (117 amino acid fragment of P. falciparum PSSP17 with a HIS tag, expressed in E. coli) (Plasmodium falciparum)
T1 construct: Antigen used to raise 10E2B7 and 27C9B5; spiked into naive human saliva in the lateral flow assays; also called recombinant PfPSSP17; recombinant subunit PSSP17; not shown: HIS tag from the expression vector
T1 chain: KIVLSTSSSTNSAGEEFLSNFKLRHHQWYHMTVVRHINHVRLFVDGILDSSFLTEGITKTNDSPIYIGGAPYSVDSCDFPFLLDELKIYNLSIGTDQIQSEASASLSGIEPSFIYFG
Assay: sandwich lateral flow immunoassay (gRAD strip, streptavidin test line); lower limit of detection of recombinant PSSP17 printed as 1-5 ng/mL

B1: anti-PSSP17 mAb 10E2.B7 IgG (antibody, V domains shown)
VH: EVQLVESGGDLVKPGGSLKLSCAASGFTFSSYGMSWVRQTPDKRLEWVATISSGGSYIYYPDSMKGRFTMSRDNAKNTLYLQMSSLKSEDTAMYYCAREERDWLAYWGQGTLVTVSA
VL: DVVMTQSPLSLPVSLGDQASISCRSSQSLIHNNGDIYVHWYLQKPGQSPKLLIYKVSNRFSGVPDRFSGSGSGTDFTFKISRVEAEDLGVYFCSQSSHVPPTFGGGTKLEIK
notes: Used biotinylated (20:1 biotin:antibody) as the capture antibody of the SMAART-PSSP17 lateral flow assay; also called biotinylated anti-PSSP17 10E2.B7; Bio-Ab
  binding result: binds

B2: anti-PF3D7_1218800 mAb 27C9.B5 IgG (antibody, V domains shown)
VH: QVQVRQSGAEVVRPGTSVRVSCKTSGYAFTDYLIEWVKQRPGQGLEWIGVINPVRGTTNYSEKFKGKATLTADKSSGTAYMQFYSLTSDDSAVYFCARSRGSDGFPYWGQGTLVTVSA
VL: DVLMTQTPLSLPVSLGDQASISCRSSQSIVHSNGYTYLEWYLQKPGQSPKLLIYKLSNRFSGVPDRFSGSGSGTDFTLKISRVEAEDLGVYYCFQGSHIPYTFGGGTKLEIK
notes: Used covalently coupled to Europium(III)-chelate carboxylate polystyrene microparticles as the detection antibody of the SMAART-PSSP17 lateral flow assay; also called EuChelate nanoparticle-conjugated anti-PSSP17 27C9.B5 mAb; MP-27C9.B5 conjugate
  binding result: binds
